Results as given in paper PMC10771525 (Communications Biology, 2024).
Read-outs that look alike come from different tables or passages of the source. Where a SMILES comes first, the peptide text is derived from it. [ ]: non-standard residue; d: D form.

Tests used:
MTNR1B = experiment: GPCR panel (control), Arrestin, CHO-K1; type: cell-based, human; settings: reference agonist
MTNR1A = experiment: GPCR panel (control), Arrestin, CHO-K1; type: cell-based, human; settings: reference agonist
P2RY12 = experiment: GPCR panel (control), Arrestin, CHO-K1; type: cell-based, human; settings: reference agonist
P2RY11 = experiment: GPCR panel (control), Arrestin, CHO-K1; type: cell-based, human; settings: reference agonist
OPRD1 = molecular target: T1, OPRD1 (Homo sapiens, UniProt P41143); experiment: GPCR panel (control), Arrestin, CHO-K1; type: cell-based; settings: reference agonist
T1 construct: expressed in transfected cells; host or cells: CHO-K1
T1 sequence (P41143 whole entry): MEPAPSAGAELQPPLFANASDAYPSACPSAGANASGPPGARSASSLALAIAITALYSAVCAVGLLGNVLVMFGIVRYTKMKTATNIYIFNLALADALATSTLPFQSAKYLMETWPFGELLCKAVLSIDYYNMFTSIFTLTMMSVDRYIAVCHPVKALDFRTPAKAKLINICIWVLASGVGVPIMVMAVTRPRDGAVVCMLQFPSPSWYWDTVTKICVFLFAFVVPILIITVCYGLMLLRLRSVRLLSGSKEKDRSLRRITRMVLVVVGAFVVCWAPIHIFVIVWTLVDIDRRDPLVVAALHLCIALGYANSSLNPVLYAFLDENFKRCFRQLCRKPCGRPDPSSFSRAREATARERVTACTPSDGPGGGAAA

KISS1R = molecular target: T2, KISS1R (Homo sapiens, UniProt Q969F8); experiment: GPCR panel (control), Arrestin, U2OS; type: cell-based
T2 construct: expressed in transfected cells; host or cells: U2OS
T2 sequence (Q969F8 whole entry): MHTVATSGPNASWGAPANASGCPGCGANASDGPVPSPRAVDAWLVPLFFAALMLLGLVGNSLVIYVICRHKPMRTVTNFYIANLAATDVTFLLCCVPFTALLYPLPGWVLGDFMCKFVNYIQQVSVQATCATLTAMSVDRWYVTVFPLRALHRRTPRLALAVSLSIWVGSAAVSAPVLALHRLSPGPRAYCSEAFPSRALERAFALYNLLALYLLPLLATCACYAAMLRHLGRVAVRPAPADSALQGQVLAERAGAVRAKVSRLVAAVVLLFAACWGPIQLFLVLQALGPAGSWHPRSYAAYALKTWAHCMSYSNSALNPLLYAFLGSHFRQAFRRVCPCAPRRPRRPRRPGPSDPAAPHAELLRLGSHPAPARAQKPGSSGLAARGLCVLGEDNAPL

PTAFR = experiment: GPCR panel (control), Arrestin, CHO-K1; type: cell-based, human; settings: reference agonist
P2RY6 = experiment: GPCR panel (control), Arrestin, CHO-K1; type: cell-based, human; settings: reference agonist
P2RY2 = experiment: GPCR panel (control), Arrestin, U2OS; type: cell-based, human; settings: reference agonist
P2RY4 = experiment: GPCR panel (control), Arrestin, CHO-K1; type: cell-based, human; settings: reference agonist
MRGPRX2 = molecular target: T3, MRGPRX2 (Homo sapiens, UniProt Q96LB1); experiment: calcium mobilization assay, CHEM-1 cells recombinantly expressing MRGPRX2; type: cell-based; design: host or cells: CHEM-1 adherent rat hematopoietic cells; settings: for MRGPRX2 activation, Readout 1 / MRGPRX2 activation, Readout 2: Fig. 3b, fragment 1 µM, normalized to 1 µM CXCL14 (100%); for MRGPRX2 activation (in words): large CXCL14 fragments, CHEM1 cells overexpressing MRGPRX2; for EC50: Fluo-8, FLIPR, read-out: EC50, calcium mobilization assays; for pEC50: Fig. 3d
T3 sequence (Q96LB1 1-330): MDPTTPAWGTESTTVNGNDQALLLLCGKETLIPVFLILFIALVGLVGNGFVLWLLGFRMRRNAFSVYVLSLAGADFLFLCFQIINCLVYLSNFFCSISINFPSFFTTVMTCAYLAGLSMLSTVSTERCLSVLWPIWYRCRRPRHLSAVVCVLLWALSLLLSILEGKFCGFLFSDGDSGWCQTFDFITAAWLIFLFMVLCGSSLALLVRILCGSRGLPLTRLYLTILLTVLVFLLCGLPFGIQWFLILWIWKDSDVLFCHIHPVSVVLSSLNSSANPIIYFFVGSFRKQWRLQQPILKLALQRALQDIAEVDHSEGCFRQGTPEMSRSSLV
Excerpt: To confirm the initial results obtained in the β-arrestin recruitment assays, we established calcium mobilization assays in two different recombinant cell lines, CHEM-1 and LN229 cells, respectively. CHEM-1 cells are adherent rat hematopoietic cells with a high endogenous expression level of the promiscuous Gα15 protein enabling the measuring of calcium signaling of a large variety of GPCRs. […]. Subsequently, we employed recombinant human glioblastoma LN229 cells, a human cell line derived from glioblastoma multiforme tumors. […].
The cell lines CHEM1 and CHEM1-MRGPRX2 are adherent rat cell lines (HTSCHEM-1RTA, HTS058RTA, Merck-Millipore, Darmstadt, Germany); which were cultured under standard cell culture conditions.
A cell-based fluorometric assay was employed for the determination of intracellular calcium release using Fluo-8. Cells were seeded into microtiter plates and incubated under standard cell culture conditions. After 24 h the medium was removed, and the cells were washed with phosphate-buffered saline (PBS). The cells were incubated with loading buffer (40 ml PBS with 2 mM Ca^2+, 800 µl of brilliant black solution (2%), 732 µl of probenecid solution (0.5 M) in 1 N NaOH, 400 µL of pluronic (10%) in water, and 152 µl of Fluo-8 (5.7 ng/ml in water)) for 30 min. For fluorescence readout and compound testing a FLIPR tetra system was used according to the manufacture’s protocol (Molecular Devices, CA 94089- 1136, USA).

[1] = molecular target: MRGPRX2 in the calcium mobilization assays of the small CXCL14 fragments and mutants (human) (UniProt Q96LB1)
[2] = molecular target: T4, mouse MRGPRB2 in 1321N1 astrocytoma cells (mouse) (UniProt Q3KNA1)
T4 sequence: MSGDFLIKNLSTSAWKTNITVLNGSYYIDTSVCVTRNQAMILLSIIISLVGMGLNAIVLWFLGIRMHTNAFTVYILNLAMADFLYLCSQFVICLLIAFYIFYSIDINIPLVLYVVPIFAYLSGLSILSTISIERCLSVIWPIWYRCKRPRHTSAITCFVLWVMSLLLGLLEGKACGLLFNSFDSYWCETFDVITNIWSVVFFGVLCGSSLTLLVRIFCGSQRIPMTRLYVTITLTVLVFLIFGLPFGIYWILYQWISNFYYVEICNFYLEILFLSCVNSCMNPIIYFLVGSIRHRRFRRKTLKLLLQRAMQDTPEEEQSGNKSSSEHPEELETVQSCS

[3] = molecular target: MRGPRX2 in CHEM-1 cells (human) (UniProt Q96LB1)
PROKR1 = experiment: GPCR panel (control), Arrestin, CHO-K1; type: cell-based, human; settings: reference agonist
PROKR2 = experiment: GPCR panel (control), Arrestin, CHO-K1; type: cell-based, human; settings: reference agonist
[4] = molecular target: MRGPRX2 in the calcium mobilization assays of the small CXCL14 fragments and mutants (human) (UniProt Q96LB1); remark: listed apart in the source
[5] = molecular target: MRGPRX2 fused to ProLink (PK), in CHO β-arrestin cells (human) (UniProt Q96LB1)
[6] = CHEM-1 cells recombinantly expressing MRGPRX2

COc1ccc2[nH]c(I)c(CCNC(C)=O)c2c1 [2-Iodomelatonin]
EC50 (MTNR1B): 0.084 nM
EC80 (MTNR1B): 4.2 nM
EC50 (MTNR1A): 0.085 nM
EC80 (MTNR1A): 5.1 nM

CSc1nc(N)c2ncn([C@@H]3O[C@H](COP(=O)(O)OP(=O)(O)O)[C@@H](O)[C@H]3O)c2n1 [2-methylthio-ADP]
EC50 (P2RY12): 2.6 nM
EC80 (P2RY12): 58 nM

Nc1ncnc2c1ncn2[C@@H]1O[C@H](COP(=O)(O)OP(=O)(O)OP(=O)(O)O)[C@@H](O)[C@H]1O [ATP]
EC50 (P2RY11): 350 µM
EC80 (P2RY11): 0.013 M

CSCC[C@H](NC(=O)[C@H](CC(C)C)NC(=O)[C@H](Cc1cnc[nH]1)NC(=O)[C@H](Cc1ccccc1)NC(=O)[C@@H](CCSC)NC(=O)[C@@H](N)Cc1ccc(O)cc1)C(=O)N[C@@H](CC(=O)O)C(N)=O [Deltorphin A] (H-Y[dM]FHLMD-NH2)
EC50 (OPRD1): 2.3 nM
EC80 (OPRD1): 54 nM

CC(C)C[C@H](NC(=O)CNC(=O)[C@H](Cc1ccccc1)NC(=O)[C@H](CO)NC(=O)[C@H](CC(N)=O)NC(=O)[C@H](Cc1c[nH]c2ccccc12)NC(=O)[C@H](CC(N)=O)NC(=O)[C@@H](N)Cc1ccc(O)cc1)C(=O)N[C@@H](CCCN=C(N)N)C(=O)N[C@@H](Cc1ccccc1)C(N)=O [Kisspeptin-10]
EC50 (KISS1R): 63 nM
EC80 (KISS1R; reference agonist, KISS1R, U2OS, Arrestin): 1.1 µM

CCCCCCCCCCCCCCCCOC[C@H](COP(=O)([O-])OCC[N+](C)(C)C)OC(C)=O [PAF]
EC50 (PTAFR): 6.3 nM
EC80 (PTAFR): 320 nM

O=c1ccn([C@@H]2O[C@H](COP(=O)(O)OP(=O)(O)OP(=O)(O)O)[C@@H](O)[C@H]2O)c(=O)[nH]1 [UTP]
EC50 (P2RY6): 100 nM
EC80 (P2RY6): 2.7 µM
EC50 (P2RY2): 420 nM
EC80 (P2RY2): 12 µM
EC50 (P2RY4): 110 nM
EC80 (P2RY4): 3.3 µM

CXCL14(1-44): large CXCL14 fragment, inactive (SKCKCSRKGPKIRYSDVKKLEMKPKYPHCEEKMVIITTKSVSRY)
MRGPRX2 activation, Readout 1 (MRGPRX2): 0.3%
MRGPRX2 activation, Readout 2 (MRGPRX2): 0.6%
MRGPRX2 activation (in words) (MRGPRX2): inactive

RFIKWY [CXCL14(60-65)]
EC50, calcium mobilization at MRGPRX2 [1]: 2.15 µM
Emax, calcium mobilization at MRGPRX2 [1]: 130%
EC50, calcium mobilization, 1321N1 astrocytoma cells expressing MRGPRB2 [2]: 2.32 µM
Emax, calcium mobilization, 1321N1 astrocytoma cells expressing MRGPRB2 [2]: 117%

KSVSRYRGQEHCLHPKLQSTKRFIKWYNAWNEKRRVYEE (domain or fragment) [CXCL14(39-77)]
EC50, calcium mobilization, CHEM1 cells overexpressing MRGPRX2 [3]: 0.68 µM
Emax, calcium mobilization, CHEM1 cells overexpressing MRGPRX2, normalized to the maximal effect of CXCL14 [3]: 164%

KRFIKWY [CXCL14(59-65)]
EC50, calcium mobilization at MRGPRX2 [1]: 0.316 µM
Emax, calcium mobilization at MRGPRX2 [1]: 155%
EC50, calcium mobilization, 1321N1 astrocytoma cells expressing MRGPRB2 [2]: 1.26 µM
Emax, calcium mobilization, 1321N1 astrocytoma cells expressing MRGPRB2 [2]: 127%

B1: EG VEGF (protein, UniProt P58294 20-105, looked up)
Prokineticin-1: AVITGACERDVQCGAGTCCAISLWLRGLRMCTPLGREGEECHPGSHKVPFFRKRKHHTCPCLPNLLCSRFPDGRYRCSMDLKNINF
EC50 (PROKR1): 49 nM
EC80 (PROKR1): 2.4 µM
EC50 (PROKR2): 5.1 nM
EC80 (PROKR2): 410 nM

B2: CXCL14(1-32/56-77) (domain or fragment)
chain: SKCKCSRKGPKIRYSDVKKLEMKPKYPHCEEKQSTKRFIKWYNAWNEKRRVYEE
EC50, calcium mobilization, CHEM1 cells overexpressing MRGPRX2 [3]: 0.678 µM
Emax, calcium mobilization, CHEM1 cells overexpressing MRGPRX2, normalized to the maximal effect of CXCL14 [3]: 175%

B3: CXCL14(1-11/18-77) (domain or fragment)
chain: SKCKCSRKGPKKKLEMKPKYPHCEEKMVIITTKSVSRYRGQEHCLHPKLQSTKRFIKWYNAWNEKRRVYEE
improvement of potency compared to CXCL14 (MRGPRX2; [6]): 3 fold
EC50 (MRGPRX2; [6]): 379 nM
Emax, calcium mobilization assays (MRGPRX2; CHEM-1 cells recombinantly expressing MRGPRX2, normalized to the maximal effect of CXCL14): 205%
MRGPRX2 activation, Readout 1 (MRGPRX2): 203%
MRGPRX2 activation, Readout 2 (MRGPRX2): 208%
pEC50 (MRGPRX2; replicate column 1): 6.419
pEC50 (MRGPRX2; replicate column 2): 6.454
EC50, calcium mobilization, CHEM1 cells overexpressing MRGPRX2 [3]: 0.379 µM
Emax, calcium mobilization, CHEM1 cells overexpressing MRGPRX2, normalized to the maximal effect of CXCL14 [3]: 205%

B4: CXCL14(1-56/64-77): largest inactive CXCL14 fragment, lacks STKRFIK (peptide)
chain: SKCKCSRKGPKIRYSDVKKLEMKPKYPHCEEKMVIITTKSVSRYRGQEHCLHPKLQWYNAWNEKRRVYEE
MRGPRX2 activation, Readout 1 (MRGPRX2): 10%
MRGPRX2 activation, Readout 2 (MRGPRX2): 8%
MRGPRX2 activation (in words) (MRGPRX2): inactive

B5: CXCL14(15-77) (domain or fragment)
chain: SDVKKLEMKPKYPHCEEKMVIITTKSVSRYRGQEHCLHPKLQSTKRFIKWYNAWNEKRRVYEE
EC50 (MRGPRX2; [6]): 751 nM
pEC50 (MRGPRX2; replicate column 1): 6.175
pEC50 (MRGPRX2; replicate column 2): 6.411
EC50, calcium mobilization, CHEM1 cells overexpressing MRGPRX2 [3]: 0.751 µM

STKRFIK [CXCL14(57-63)]
EC50, calcium mobilization at MRGPRX2 [4]: > 10 µM
EC50, β-arrestin recruitment at MRGPRX2 [5]: 50.4 µM
Emax, β-arrestin recruitment at MRGPRX2, normalized to the maximal effect of CXCL14 [5]: 53%

B6: CXCL14(1-63): large CXCL14 fragment, inactive (peptide)
chain: SKCKCSRKGPKIRYSDVKKLEMKPKYPHCEEKMVIITTKSVSRYRGQEHCLHPKLQSTKRFIK
MRGPRX2 activation, Readout 1 (MRGPRX2): 36%
MRGPRX2 activation, Readout 2 (MRGPRX2): 38%
MRGPRX2 activation (in words) (MRGPRX2): inactive
